Source: patent US20250352661A1 (MYTHIC THERAPEUTICS, published 2025)

B1: MYT8422 (antibody, V domains shown)
VH: EVQLVESGGGLVQPGGSLRLSCTASGLDFRRTNYICWVRQAPGKGLEWVGCIYIADVVHYYASWAKGRFTFSRDTSKNTVYLQMNSLRAEDTAVYYCARGADGGFVYGMDLWGQGTLVTVSS
VL: EIVMTQSPSTLSASVGDRVIITCQASQSIGNHLSWYQQKPGKAPKRLIYSASTLPSGVPSRFSGSGSGAEFTLTISSLQPDDFATYYCQNNHWLAGYGHPFGQGTKLTVL
notes: hu15G7 VL Y32H, Y92H; human Fc
B2: MYT8433 (antibody, V domains shown)
VH: EVQLVESGGGLVQPGGSLRLSCTASGLDFRRTNYICWVRQAPGKGLEWVGCIYIADVVHYYASWAKGRFTFSRDTSKNTVYLQMNSLRAEDTAVYYCARGADGGFVYGMDLWGQGTLVTVSS
VL: EIVMTQSPSTLSASVGDRVIITCQASQSIHNYLSWYQQKPGKAPKRLIYSASTLPSGVPSRFSGSGSGAEFTLTISSLQPDDFATYYCQNNYHLAHYGHPFGQGTKLTVL
notes: hu15G7 VL G30H, W93H, G96H; human Fc
B3: MYT8430 (antibody, V domains shown)
VH: EVQLVESGGGLVQPGGSLRLSCTASGLDFRRTNYICWVRQAPGKGLEWVGCIYIADVVHYYASWAKGRFTFSRDTSKNTVYLQMNSLRAEDTAVYYCARGADGGFVYGMDLWGQGTLVTVSS
VL: EIVMTQSPSTLSASVGDRVIITCQASQSIHNHLSWYQQKPGKAPKRLIYSASTLPSGVPSRFSGSGSGAEFTLTISSLQPDDFATYYCQNNYWLAHYGHPFGQGTKLTVL
notes: hu15G7 VL G30H, Y32H, G96H; human Fc
B4: MYT8424 (antibody, V domains shown)
VH: EVQLVESGGGLVQPGGSLRLSCTASGLDFRRTNYICWVRQAPGKGLEWVGCIYIADVVHYYASWAKGRFTFSRDTSKNTVYLQMNSLRAEDTAVYYCARGADGGFVYGMDLWGQGTLVTVSS
VL: EIVMTQSPSTLSASVGDRVIITCQASQSIGNHLSWYQQKPGKAPKRLIYSASTLPSGVPSRFSGSGSGAEFTLTISSLQPDDFATYYCQNNYWLAHYGHPFGQGTKLTVL
notes: hu15G7 VL Y32H, G96H; human Fc
B5: MYT8427 (antibody, V domains shown)
VH: EVQLVESGGGLVQPGGSLRLSCTASGLDFRRTNYICWVRQAPGKGLEWVGCIYIADVVHYYASWAKGRFTFSRDTSKNTVYLQMNSLRAEDTAVYYCARGADGGFVYGMDLWGQGTLVTVSS
VL: EIVMTQSPSTLSASVGDRVIITCQASQSIGNYLSWYQQKPGKAPKRLIYSASTLPSGVPSRFSGSGSGAEFTLTISSLQPDDFATYYCQNNYHLAHYGHPFGQGTKLTVL
notes: hu15G7 VL W93H, G96H; human Fc
B6: MYT8423 (antibody, V domains shown)
VH: EVQLVESGGGLVQPGGSLRLSCTASGLDFRRTNYICWVRQAPGKGLEWVGCIYIADVVHYYASWAKGRFTFSRDTSKNTVYLQMNSLRAEDTAVYYCARGADGGFVYGMDLWGQGTLVTVSS
VL: EIVMTQSPSTLSASVGDRVIITCQASQSIGNHLSWYQQKPGKAPKRLIYSASTLPSGVPSRFSGSGSGAEFTLTISSLQPDDFATYYCQNNYHLAGYGHPFGQGTKLTVL
notes: hu15G7 VL Y32H, W93H; human Fc
B7: MYT8434 (antibody, V domains shown)
VH: EVQLVESGGGLVQPGGSLRLSCTASGLDFRRTNYICWVRQAPGKGLEWVGCIYIADVVHYYASWAKGRFTFSRDTSKNTVYLQMNSLRAEDTAVYYCARGADGGFVYGMDLWGQGTLVTVSS
VL: EIVMTQSPSTLSASVGDRVIITCQASQSIGNHLSWYQQKPGKAPKRLIYSASTLPSGVPSRFSGSGSGAEFTLTISSLQPDDFATYYCQNNHHLAGYGHPFGQGTKLTVL
notes: hu15G7 VL Y32H, Y92H, W93H; human Fc
B8: MYT8431 (antibody, V domains shown)
VH: EVQLVESGGGLVQPGGSLRLSCTASGLDFRRTNYICWVRQAPGKGLEWVGCIYIADVVHYYASWAKGRFTFSRDTSKNTVYLQMNSLRAEDTAVYYCARGADGGFVYGMDLWGQGTLVTVSS
VL: EIVMTQSPSTLSASVGDRVIITCQASQSIHNYLSWYQQKPGKAPKRLIYSASTLPSGVPSRFSGSGSGAEFTLTISSLQPDDFATYYCQNNHHLAGYGHPFGQGTKLTVL
notes: hu15G7 VL G30H, Y92H, W93H; human Fc
B9: MYT8429 (antibody, V domains shown)
VH: EVQLVESGGGLVQPGGSLRLSCTASGLDFRRTNYICWVRQAPGKGLEWVGCIYIADVVHYYASWAKGRFTFSRDTSKNTVYLQMNSLRAEDTAVYYCARGADGGFVYGMDLWGQGTLVTVSS
VL: EIVMTQSPSTLSASVGDRVIITCQASQSIHNHLSWYQQKPGKAPKRLIYSASTLPSGVPSRFSGSGSGAEFTLTISSLQPDDFATYYCQNNYHLAGYGHPFGQGTKLTVL
notes: hu15G7 VL G30H, Y32H, W93H; human Fc
B10: MYT8425 (antibody, V domains shown)
VH: EVQLVESGGGLVQPGGSLRLSCTASGLDFRRTNYICWVRQAPGKGLEWVGCIYIADVVHYYASWAKGRFTFSRDTSKNTVYLQMNSLRAEDTAVYYCARGADGGFVYGMDLWGQGTLVTVSS
VL: EIVMTQSPSTLSASVGDRVIITCQASQSIGNYLSWYQQKPGKAPKRLIYSASTLPSGVPSRFSGSGSGAEFTLTISSLQPDDFATYYCQNNHHLAGYGHPFGQGTKLTVL
notes: hu15G7 VL Y92H, W93H; human Fc
B11: MYT8437 (antibody, V domains shown)
VH: EVQLVESGGGLVQPGGSLRLSCTASGLDFRRTNYICWVRQAPGKGLEWVGCIYIADVVHYYASWAKGRFTFSRDTSKNTVYLQMNSLRAEDTAVYYCARGADGGFVYGMDLWGQGTLVTVSS
VL: EIVMTQSPSTLSASVGDRVIITCQASQSIGNYLSWYQQKPGKAPKRLIYSASTLPSGVPSRFSGSGSGAEFTLTISSLQPDDFATYYCQNNHHLAHYGHPFGQGTKLTVL
notes: hu15G7 VL Y92H, W93H, G96H; human Fc
B12: MYT8435 (antibody, V domains shown)
VH: EVQLVESGGGLVQPGGSLRLSCTASGLDFRRTNYICWVRQAPGKGLEWVGCIYIADVVHYYASWAKGRFTFSRDTSKNTVYLQMNSLRAEDTAVYYCARGADGGFVYGMDLWGQGTLVTVSS
VL: EIVMTQSPSTLSASVGDRVIITCQASQSIGNHLSWYQQKPGKAPKRLIYSASTLPSGVPSRFSGSGSGAEFTLTISSLQPDDFATYYCQNNHWLAHYGHPFGQGTKLTVL
notes: hu15G7 VL Y32H, Y92H, G96H; human Fc
B13: MYT8426 (antibody, V domains shown)
VH: EVQLVESGGGLVQPGGSLRLSCTASGLDFRRTNYICWVRQAPGKGLEWVGCIYIADVVHYYASWAKGRFTFSRDTSKNTVYLQMNSLRAEDTAVYYCARGADGGFVYGMDLWGQGTLVTVSS
VL: EIVMTQSPSTLSASVGDRVIITCQASQSIGNYLSWYQQKPGKAPKRLIYSASTLPSGVPSRFSGSGSGAEFTLTISSLQPDDFATYYCQNNHWLAHYGHPFGQGTKLTVL
notes: hu15G7 VL Y92H, G96H; human Fc
B14: MYT8436 (antibody, V domains shown)
VH: EVQLVESGGGLVQPGGSLRLSCTASGLDFRRTNYICWVRQAPGKGLEWVGCIYIADVVHYYASWAKGRFTFSRDTSKNTVYLQMNSLRAEDTAVYYCARGADGGFVYGMDLWGQGTLVTVSS
VL: EIVMTQSPSTLSASVGDRVIITCQASQSIGNHLSWYQQKPGKAPKRLIYSASTLPSGVPSRFSGSGSGAEFTLTISSLQPDDFATYYCQNNYHLAHYGHPFGQGTKLTVL
notes: hu15G7 VL Y32H, W93H, G96H; human Fc

What follows are binders tested against T1, Human LRRC15 Protein, His Tag (Acro Biosystems) (human, UniProt Q8TF66 22-538, limits assumed) (assay: BLI; dissociation pH 7.4 black, pH 5.4 grey [D00010 FIG. 1H]).
T1 construct: Bought protein with His tag
T1 sequence (looked up): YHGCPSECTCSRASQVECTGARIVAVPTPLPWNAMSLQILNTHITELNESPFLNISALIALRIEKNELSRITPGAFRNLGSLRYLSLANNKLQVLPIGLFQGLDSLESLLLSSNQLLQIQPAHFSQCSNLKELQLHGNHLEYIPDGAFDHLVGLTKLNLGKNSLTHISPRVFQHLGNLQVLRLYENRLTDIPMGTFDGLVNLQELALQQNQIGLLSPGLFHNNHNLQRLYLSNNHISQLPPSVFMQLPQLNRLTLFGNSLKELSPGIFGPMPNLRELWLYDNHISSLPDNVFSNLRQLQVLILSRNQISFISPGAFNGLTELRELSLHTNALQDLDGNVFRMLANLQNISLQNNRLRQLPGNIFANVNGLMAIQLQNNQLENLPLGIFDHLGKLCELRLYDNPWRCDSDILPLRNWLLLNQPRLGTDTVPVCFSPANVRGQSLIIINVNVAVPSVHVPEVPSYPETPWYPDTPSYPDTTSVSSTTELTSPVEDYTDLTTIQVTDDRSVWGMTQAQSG
Description: For each individual plot, antigen binding proteins were captured on anti-human Fc biosensors and associated with LRRC15 at pH 7.4. Dissociation was at pH 7.4 (black) or pH 5.4 (grey). Major X-axis ticks=100 seconds, with left dashed vertical line=0 seconds. Major Y-axis ticks=0.5 nm and octet plots are shown MYT5712 and MYT6080-MYT6121.
Multiple LRRC15-binding monoclonal antibodies have been described in the literature and can be used as a template for engineering pH-dependent binding. We selected discovery RabMAb clone 15G7 (rabbit VH SEQ ID NO: 378, rabbit VL SEQ ID NO: 451; humanized VH SEQ ID NO: 382, humanized VL SEQ ID NO: 455) as a LRRC15-binding monoclonal antibody for pH-engineering via histidine scanning. […] To generate pH-dependent sequence variants, individual amino acid residues within the heavy chain CDRs were systematically substituted with a histidine (or alanine if H was already present in a given position; e.g., MYT6099), one at a time (rabbit, MYT6080-6121). Desirable mutations were transferred to a humanized framework (humanized, MYT 8387-8411). After allowing for four days of protein expression, cell culture supernatants were collected, quantified by SDS-PAGE analysis, and the pH dependence of the variant was evaluated using biolayer interferometry (BLI) on an Octet RED 96e instrument. Briefly, cell culture supernatants were diluted based on qualitative expression level of the variant determined by visual examination of SDS-PAGE gels, 5 μL of cell culture supernatant was diluted into 195 μL of 1×PBST, pH 7.4 for high expressors, 25 μL of cell culture supernatant was diluted into 175 μL of 1×PBST, pH 7.4 for medium expressors and 100 μL of cell culture supernatant was diluted into 100 μL of 1×PBST, pH 7.4 for low expressors for loading onto the sensor tips.
B1: binds.
B2: binds.
B3: binds.
B4: binds.
B5: binds.
B6: no binding (tested: 50 nM LRRC15).
B7: no binding (tested: 50 nM LRRC15).
B8: binds.
B9: no binding (tested: 50 nM LRRC15).
B10: binds.
B11: no binding (tested: 50 nM LRRC15).
B12: no binding (tested: 50 nM LRRC15).
B13: binds.
B14: no binding (tested: 50 nM LRRC15).
